Test results taken from patent publication US20120122765A1, “COMPOUNDS AND RELATED METHODS FOR MANIPULATING PARP-1-DEPENDENT CELL DEATH” (priority 2010, published 2012).
Entries after “also recorded” stand apart in the source; their conditions may differ. Blank lines part the entries; values can stand above or below the molecule they belong to. Where no end group is shown, it is not given here.

System: PAR
Assay: PAR overlay assay of full length AIF and mutants
Format: binding
Conditions: for reduced PAR binding: radioactive signal normalized to WT-AIF; for binding to 32P-labeled automodified PARP-1 or purified 32P-labeled PAR / effect of hundred fold excess of salmon sperm DNA on PAR binding: overlay assay; for binding to 32P-labeled automodified PARP-1 or purified 32P-labeled PAR: 100 nM PAR; for effect of hundred fold excess of salmon sperm DNA on PAR binding: 32P-labeled PAR; for effect of salmon sperm DNA on PAR binding: salmon sperm DNA at 760 μM
Procedure: The following experiment was performed to confirm whether AIF in fact binds to PAR. Applicants performed 3 trials of an overlay assay on recombinant AIF with affinity-purified biotin-labeled PAR. Histone H3, which binds to PAR with high affinity, was included as a positive control and bovine serum albumin (“BSA”) was included as a negative control, as described by P. Chang et al. (Nat Cell Bio, 2005). FIG. 1B depicts three photos side by side for gels representative of all trials for these overlay assays. […] Thus, Applicants took the results of these two tests as confirming that AIF binds to PAR in vitro.
To further study these potential AIF PBMs, Applicants performed the following experiment to examine the effect of mutating AIFm amino acids 222-244, 441-463, and/or 567-592 to poly-alanine on the ability of AIF to bind PAR. FIG. 6 comprises black and white photographs of representative gels from an overlay assay of His-tagged WT-AIF, AIFm222-244, AIFm441-463, AIFm567-592, AIFΔ567-592 (i.e., a mutant lacking AAs 567-592), and AIF(K254A, R264A) (i.e., mutating K to A at 254 and R to A at 264) mutants with ^32P-labeled automodified PARP-1 (equivalent to 100 nM of PAR), purified ^32P-labeled PAR (100 nM), or purified ^32P-labeled PAR with either a 100-fold excess of DNA or cold PAR. […] The same can be assumed to corresponding sequences for other species, such as those identified in FIG. 4.
Additionally, to exclude the possibility that PAR polymer is binding to AIF through its DNA-binding domain, PAR polymer binding was assessed against the full length AIF DNA-binding mutant AIFK254A;R264A as described by H Cande et al. (Nat Struct Biol, 2002).
Finally, Human AIF (“AIFH”) is known to bind to DNA through a groove between the FAD-binding domain (“D1”) and C-terminal domain (“D3”). A mutant form of AIFH in which lysine 255 is substituted with alanine and arginine 265 is substituted with alanine (AIFK255A;R265A) completely lacks DNA binding. To investigate the possible contribution of the AIF DNA-binding domain to PAR binding, Applicants assessed PAR binding to AIFm mutated in the same way (AIFK254A;R264A). […] Thus, Applicants concluded that the AIF PAR-binding site is separable from its DNA-binding site, meaning that such binding could be inhibited by genetically modifying AIF without impacting the natural DNA binding capabilities of AIF or potentially by otherwise inhibiting the binding action of the PBMs.

PAR binding (His-tagged proteins, purified PAR, normalized to WT-AIF, result in words): nearly abolished PAR-binding
Molecule: triple leucine mutant: mouse AIF mutant R588L;K589L;K592L (LRDKVVVGIVLWNVFNRMPIALLIIL; mouse)

reduced PAR binding: about 85%
Molecule: AIFR588L;K589L: His-tagged mouse AIF double leucine mutant, SEQ. ID NO. 19 (LRDKVVVGIVLWNVFNRMPIALLIIK; also: His tag)

reduced PAR binding: about 85%
Molecule: AIFR588L;K592L: His-tagged mouse AIF double leucine mutant, SEQ. ID NO. 20 (LRDKVVVGIVLWNVFNRMPIALKIIL; also: His tag)

reduced PAR binding: about 85%
Molecule: AIFK589L;K592L: His-tagged mouse AIF double leucine mutant, SEQ. ID NO. 21 (LRDKVVVGIVLWNVFNRMPIARLIIL; also: His tag)

reduced PAR binding: 40%
B1: AIF-Sm: full length mouse AIF, arginine at 588 substituted with alanine (protein, UniProt Q9Z0X1 1-612, looked up, variant R588A)
chain: MFRCGGLAGAFKQKLVPLVRTVYVQRPKQRNRLPGNLFQQWRVPLELQMARQMASSGSSGGKMDNSVLVLIVGLSTIGAGAYAYKTIKEDQKRYNERVMGLGLSPEEKQRRAIASATEGGSVPQIRAPSHVPFLLIGGGTAAFAAARSIRARDPGARVLIVSEDPELPYMRPPLSKELWFSDDPNVTKTLQFRQWNGKERSIYFQPPSFYVSAQDLPNIENGGVAVLTGKKVVHLDVRGNMVKLNDGSQITFEKCLIATGGTPRSLSAIDRAGAEVKSRTTLFRKIGDFRALEKISREVKSITVIGGGFLGSELACALGRKSQASGIEVIQLFPEKGNMGKILPQYLSNWTMEKVKREGVKVMPNAIVQSVGVSGGRLLIKLKDGRKVETDHIVTAVGLEPNVELAKTGGLEIDSDFGGFRVNAELQARSNIWVAGDAACFYDIKLGRRRVEHHDHAVVSGRLAGENMTGAAKPYWHQSMFWSDLGPDVGYEAIGLVDSSLPTVGVFAKATAQDNPKSATEQSGTGIRSESETESEASEITIPPSAPAVPQVPVEGEDYGKGVIFYLRDKVVVGIVLWNVFNRMPIAAKIIKDGEQHEDLNEVAKLFNIHED
modifications: full-length
notes: full length mouse AIF, arginine at 588 substituted with alanine

reduced PAR binding: 80%
B2: AIF-Dm: full length mouse AIF, arginine 588 and lysine 589 substituted with alanines (protein, UniProt Q9Z0X1 1-612, looked up, variant R588A K589A)
chain: MFRCGGLAGAFKQKLVPLVRTVYVQRPKQRNRLPGNLFQQWRVPLELQMARQMASSGSSGGKMDNSVLVLIVGLSTIGAGAYAYKTIKEDQKRYNERVMGLGLSPEEKQRRAIASATEGGSVPQIRAPSHVPFLLIGGGTAAFAAARSIRARDPGARVLIVSEDPELPYMRPPLSKELWFSDDPNVTKTLQFRQWNGKERSIYFQPPSFYVSAQDLPNIENGGVAVLTGKKVVHLDVRGNMVKLNDGSQITFEKCLIATGGTPRSLSAIDRAGAEVKSRTTLFRKIGDFRALEKISREVKSITVIGGGFLGSELACALGRKSQASGIEVIQLFPEKGNMGKILPQYLSNWTMEKVKREGVKVMPNAIVQSVGVSGGRLLIKLKDGRKVETDHIVTAVGLEPNVELAKTGGLEIDSDFGGFRVNAELQARSNIWVAGDAACFYDIKLGRRRVEHHDHAVVSGRLAGENMTGAAKPYWHQSMFWSDLGPDVGYEAIGLVDSSLPTVGVFAKATAQDNPKSATEQSGTGIRSESETESEASEITIPPSAPAVPQVPVEGEDYGKGVIFYLRDKVVVGIVLWNVFNRMPIAAAIIKDGEQHEDLNEVAKLFNIHED
modifications: full-length
notes: full length mouse AIF, arginine 588 and lysine 589 substituted with alanines

effect of hundred fold excess of salmon sperm DNA on PAR binding: fails to disrupt
effect of salmon sperm DNA on PAR binding: failed to disrupt PAR binding
B3: AIFK254A;R264A: full length mouse AIF DNA-binding mutant, K to A at 254 and R to A at 264 (protein)
chain: MFRCGGLAGAFKQKLVPLVRTVYVQRPKQRNRLPGNLFQQWRVPLELQMARQMASSGSSGGKMDNSVLVLIVGLSTIGAGAYAYKTIKEDQKRYNERVMGLGLSPEEKQRRAIASATEGGSVPQIRAPSHVPFLLIGGGTAAFAAARSIRARDPGARVLIVSEDPELPYMRPPLSKELWFSDDPNVTKTLQFRQWNGKERSIYFQPPSFYVSAQDLPNIENGGVAVLTGKKVVHLDVRGNMVKLNDGSQITFEACLIATGGTPASLSAIDRAGAEVKSRTTLFRKIGDFRALEKISREVKSITVIGGGFLGSELACALGRKSQASGIEVIQLFPEKGNMGKILPQYLSNWTMEKVKREGVKVMPNAIVQSVGVSGGRLLIKLKDGRKVETDHIVTAVGLEPNVELAKTGGLEIDSDFGGFRVNAELQARSNIWVAGDAACFYDIKLGRRRVEHHDHAVVSGRLAGENMTGAAKPYWHQSMFWSDLGPDVGYEAIGLVDSSLPTVGVFAKATAQDNPKSATEQSGTGIRSESETESEASEITIPPSAPAVPQVPVEGEDYGKGVIFYLRDKVVVGIVLWNVFNRMPIARKIIKDGEQHEDLNEVAKLFNIHED
modifications: left off: small tags and cut ends
binding to 32P-labeled automodified PARP-1 or purified 32P-labeled PAR (His-tagged proteins): still substantially binds; also recorded: bound to ^32P-labeled automodified PARP-1 and purified ^32P-labeled PAR

reduced PAR binding: 90%
B4: AIF-Qm: full length mouse AIF, arginine 588, lysine 589, lysine 592 and arginine 583 substituted with alanines (protein, UniProt Q9Z0X1 1-612, looked up, variant R583A R588A K589A K592A)
chain: MFRCGGLAGAFKQKLVPLVRTVYVQRPKQRNRLPGNLFQQWRVPLELQMARQMASSGSSGGKMDNSVLVLIVGLSTIGAGAYAYKTIKEDQKRYNERVMGLGLSPEEKQRRAIASATEGGSVPQIRAPSHVPFLLIGGGTAAFAAARSIRARDPGARVLIVSEDPELPYMRPPLSKELWFSDDPNVTKTLQFRQWNGKERSIYFQPPSFYVSAQDLPNIENGGVAVLTGKKVVHLDVRGNMVKLNDGSQITFEKCLIATGGTPRSLSAIDRAGAEVKSRTTLFRKIGDFRALEKISREVKSITVIGGGFLGSELACALGRKSQASGIEVIQLFPEKGNMGKILPQYLSNWTMEKVKREGVKVMPNAIVQSVGVSGGRLLIKLKDGRKVETDHIVTAVGLEPNVELAKTGGLEIDSDFGGFRVNAELQARSNIWVAGDAACFYDIKLGRRRVEHHDHAVVSGRLAGENMTGAAKPYWHQSMFWSDLGPDVGYEAIGLVDSSLPTVGVFAKATAQDNPKSATEQSGTGIRSESETESEASEITIPPSAPAVPQVPVEGEDYGKGVIFYLRDKVVVGIVLWNVFNAMPIAAAIIADGEQHEDLNEVAKLFNIHED
modifications: full-length
notes: full length mouse AIF, arginine 588, lysine 589, lysine 592 and arginine 583 substituted with alanines

effect of hundred fold excess of salmon sperm DNA on PAR binding: fails to disrupt
effect of salmon sperm DNA on PAR binding: failed to disrupt PAR binding
B5: AIFm441-463: His-tagged mouse AIF with amino acids 441 to 463 mutated to poly-alanine (protein)
chain: MFRCGGLAGAFKQKLVPLVRTVYVQRPKQRNRLPGNLFQQWRVPLELQMARQMASSGSSGGKMDNSVLVLIVGLSTIGAGAYAYKTIKEDQKRYNERVMGLGLSPEEKQRRAIASATEGGSVPQIRAPSHVPFLLIGGGTAAFAAARSIRARDPGARVLIVSEDPELPYMRPPLSKELWFSDDPNVTKTLQFRQWNGKERSIYFQPPSFYVSAQDLPNIENGGVAVLTGKKVVHLDVRGNMVKLNDGSQITFEKCLIATGGTPRSLSAIDRAGAEVKSRTTLFRKIGDFRALEKISREVKSITVIGGGFLGSELACALGRKSQASGIEVIQLFPEKGNMGKILPQYLSNWTMEKVKREGVKVMPNAIVQSVGVSGGRLLIKLKDGRKVETDHIVTAVGLEPNVELAKTGGLEIDSDFGGFRVNAELQARSNIWVAGDAACAAAAAAAAAAAAAAAAAAAAAAAAGENMTGAAKPYWHQSMFWSDLGPDVGYEAIGLVDSSLPTVGVFAKATAQDNPKSATEQSGTGIRSESETESEASEITIPPSAPAVPQVPVEGEDYGKGVIFYLRDKVVVGIVLWNVFNRMPIARKIIKDGEQHEDLNEVAKLFNIHED
modifications: left off: small tags and cut ends
notes: His-tagged mouse AIF with amino acids 441 to 463 mutated to poly-alanine
binding to 32P-labeled automodified PARP-1 or purified 32P-labeled PAR (His-tagged proteins): comparable binding to that of unmutated WT-AIFm
